Measurements taken from US20230173098A1, “NANOPARTICLE COMPLEX FOR ORAL ADMINISTRATION AND USES THEREOF” (IUCF-HYU (Industry-University Cooperation Foundation …, priority 2021, published 2023).

Experiments:
[1] = PTT efficiency and photothermal heating profile under 532 nm PTT laser in vials; type: physicochemical
[2] = system: human umbilical vein endothelial cells (HUVECs); experiment: Cytotoxicity (EZ-Cytox, TEM morphology) in vascular endothelial cells; type: cell-based; conditions: gold equivalent 10 μM, 24 hours
Procedure: (§1) Specifically, human umbilical vein endothelial cells (HUVECs) and small intestine endothelial cells (Caco-2) were seeded in 96-well plates at a seeding density of 5×10^3 cells for each well and incubated for 24 hours in a CO2 incubator. Next, AuNP, Ce6-AuNP and Lf-PEG-AuNP (gold equivalent concentration of 10 μM) were applied for 24 hours. Next, after washing with PBS buffer, wells were treated with a culture medium containing EZ-Cytox at 37° C. and 5% CO2 for 4 hours. In this case, the absorbance of the medium was measured with a micro-well plate reader at a wavelength of 450 nm, and the results are illustrated in FIGS. 16, 17A and 17B.

[3] = system: small intestine endothelial cells (Caco-2); experiment: Cytotoxicity (EZ-Cytox, TEM morphology) in small intestine endothelial cells; type: cell-based, human; conditions: Caco-2, gold equivalent 10 μM, 24 hours
Procedure: as §1

[4] = 532 nm, 4 W/cm^2, 240 sec, gold equivalent 10 μM

B1: AuNP-Lf: PEGylated Lf-conjugated AuNP (conjugate, UniProt P02788 20-710, looked up)
Lactotransferrin: GRRRSVQWCAVSQPEATKCFQWQRNMRKVRGPPVSCIKRDSPIQCIQAIAENRADAVTLDGGFIYEAGLAPYKLRPVAAEVYGTERQPRTHYYAVAVVKKGGSFQLNELQGLKSCHTGLRRTAGWNVPIGTLRPFLNWTGPPEPIEAAVARFFSASCVPGADKGQFPNLCRLCAGTGENKCAFSSQEPYFSYSGAFKCLRDGAGDVAFIRESTVFEDLSDEAERDEYELLCPDNTRKPVDKFKDCHLARVPSHAVVARSVNGKEDAIWNLLRQAQEKFGKDKSPKFQLFGSPSGQKDLLFKDSAIGFSRVPPRIDSGLYLGSGYFTAIQNLRKSEEEVAARRARVVWCAVGEQELRKCNQWSGLSEGSVTCSSASTTEDCIALVLKGEADAMSLDGGYVYTAGKCGLVPVLAENYKSQQSSDPDPNCVDRPVEGYLAVAVVRRSDTSLTWNSVKGKKSCHTAVDRTAGWNIPMGLLFNQTGSCKFDEYFSQSCAPGSDPRSNLCALCIGDEQGENKCVPNSNERYYGYTGAFRCLAENAGDVAFVKDVTVLQNTDGNNNEAWAKDLKLADFALLCLDGKRKPVTEARSCHLAMAPNHAVVSRMDKVERLKQVLLHQQAKFGRNGSDCPDKFCLFQSETKNLLFNDNTECLARLHGKTTYEKYLGPQYVAGITNLKKCSTSPLLEACEFLRK
modifications: PEGylated gold nanoparticle conjugate
PTT efficiency / heat generation (in words) ([1]; 532 nm PTT laser, 4 W/cm^2): higher PTT efficiency
Maximum temperature (Tmax) [1, 4]: 56.3 ± 0.5 °C
PTT efficiency (Tmax − T0) [1, 4]: 29.6 ± 0.2 °C
cytotoxicity and morphological changes [2]: not detected
cytotoxicity and morphological changes [3]: not detected
